According to publication doi:10.1101/2024.02.24.581848:

Molecular target: HigC SecB^TA chaperone of the E. coli NT1F31 HigBAC system (E. coli NT1F31)
Assay: ITC

| Binder | Kd [µM] | effective KD with 1.5-fold molar excess of the HigA ChAD peptide [µM] | stoichiometry N |
| --- | --- | --- | --- |
| GELTAESYDDSYLDDEDADWTATGQGQKSAG [gpV^48-78 peptide] | 0.25 | 6.6 | 0.47 |
| GELTAESYDDSYLAAAAADWTATGQGQKSAG [gpV^48-78 peptide, poly-alanine substitution of the D61DED64 element] | 7 | – | 0.5 |
